Measured values from the DeepSol protein solubility set.

Assay: soluble on expression in E. coli; label from the status in PepcDB or PDB records

| Sequence | soluble on expression in E. coli |
| --- | --- |
| MANCENNPWKKNAWGKNEETAEEPIVSFADVLSEEFIEDLSVQEKLEEERYMKQLDQMFGDTSVSDDQLPINTEGMTDEEVALALQRHFDREADVARAVGSSSSVHFTPDRYHPKTMQETDSENEDDDALRQAATDMLYAKLDEENATNSRLRPEGPSTSRTKHDTGVSGRRNADKTFNDRNTLPTGDMVGDKLNNKVFNKLMAFGKSESKRQMRNKDKEEKATMDTSVDSDTRLLLLKWINQGVFDSVDGIIATGKESAVLHAAQDSATSYAIKVYKTTLSEFKNRSEYVKDDFRFKNPRGVLKIWAEREFMNLSRMAKHGLPCPQPVKVRRNVLVMSFLGDQGLAAPRLKNVEWEFFTDDERRNVYDQVQSIMCRMYKECLLVHADLSEFNLLLTPDNKVHVIDVSQAMDLSHPRSLQFLTRDIQNIITFFTRIGTPNLPTYVQLFNLITDLDMVEDHDLLVQVEQFSEENRSVDLRHDKSRPADMELKKYNEEKKANRGISPAREYN | not soluble |
| MANHARVVRGGEMASAQWLQALAAGVEPEVRMNPVLVKPFGERGAQVVVWGKVDPFLSGLPWKERRPHLEAPVREALEGLLAEYDLLVLEGAGSPVERNLWPDLPNLRVAEWADAKALLVADVDQGGALGALYGTWALLGEHRKRLIGFAFNKFRGDLELLKPAYALLRDWTGLPVLGTLPLLPLALPEEDGFRYRQPAGNGPKVALLRYPHAANLDEFWPLSELAQVVYAHSPEEAEGAWLLILPGSRLPARDLPWLRAFLPLIQRHLEAGKPVLAVCGGAEMLSEALLDEEGVEERGHFPGLGLLPYRVRMAREKTVERRRVRLRGLSGYWGRLEGLEVEGYEIHHGQGLPLFHQEGSLLATWLHGLLENPGVQKALFGREARGLEEGLEALADALERHLDLRALHRALGLTGRAFPASPTEAKAPVGCPDPPPPPGLVLLLGGAKSGKSRFAQRLAGPFATLVATAEARDEEMAEKIRRHQEERPPTWETLEAPLDLVGALKRARHPTVVVDCLTLWVANLMERGLDPLLEARRFLSAVEESGKRVIAVSNEVGMGIVPQNPLARRYRDLLGQVNALLAEAAQEAYLLVAGRALPLGGGKVPAQEAKRPGSHGGEPGPGRSRDPGP | soluble |
| MANLGMTGVADGNNSEQTYLGQINYQDQTITKASAKKLNREIDLQRASQLTLWAMPMVGMYQSYNSTIALFDLQEGDAPIIGLHEGYDGVYPFLTANVTTPYTISLVDLSETGPYVVNIPAGSIFGVANNAWQEPIKEIGSGNKETLLFVGPGQEYPKDFDGEVIQSDTNQILYFYRVLGVGAEAEKLKTAVTAYKLSDVANPPQVKFVIYKPKASDADVTIATQPRGMAYWEVVNQYIQNEPMADRDRFFYAWLKDLGIEKGKAFNPTPYQKEILLEGVNTGMAMAQSLAFNKTKKKFSSSLYGSDSGWEGVLAGMDPKIDLDTYSMINERTAYTYEAVTTSAGMIVENPGHGSAYIGSYYDADGNALMGGKNYTLHIEPNPPAANFWSITVYDIKNRLIIRNEIKRSDLSSRSESLVMNSDGSVDLYFGPEAPEGKEGNWIQSNDGESYFMYLRLYGPEQEYFDQTYPMNKIDKTKLEHHHHHH | not soluble |
| MANPKLPGISESEQALLYAKLNEYNRGRASFKEAGVYLVVLPRPGKPNYSLWLYSPLPEKQSILYIHDLSPDINESLRIASTMFYYSRRCLILMDYNEKRMQSNGDDLIFFGKYRGHFLHEILKVDPAYLSWIAYKFTPKIPKQERFVKIAQAYHSVHLDVMLRKSKEVRRKSRYLGEVNEKLTDLKLKVMRVRLEDDPYKTRVYGTTPQFFVKQILTLNDASGNLVTMSIPSKTPSTVSCTLSGIEHEYRPGEIIYVASARVSRLFESYGSKYTRLSNVKLAIVNAWSSRL | not soluble |
| MANQHANHSINDFKQFVKKHPKLIKEVRKEQRSWQDVYENWVLFGESDPIWDPYREPEEASEAVPETPQKNDFVSKMVTAVKKMDVNQMNEQINKMSQSISSLQSLLNTFSGSGQKHSQPGSGQHPFSFRKDLEHHHHHH | soluble |
| MANRKYFGTDGVRGKVGAYPITPDFALKLGWAAGKVLASQGSKMVLIGKDTRISGYMLESALEAGLAAAGLSAAFTGPMPTPAIAYLTRTFRAEAGIVISASHNPYYDNGIKFFSAKGTKLPDEIEEAIEAMLEQPMDCVESAELGKASRINDAAGRYIEFCKGTFPAHLGLEGYKIVVDCANGATYHIAPNVLRELGAEVIEIGTDPNGLNINEKCGATDVTALQAKVVETKADVGLAYDGDGDRIMMVDHLGNKVDGDQILFIIAREALRSGQLKGGVVGTLMSNMSLEIALKMLGVPFLRANVGDRYVLEKMVENDWTLGGENSGHIIIADKNTTGDGIVASLAVLAAMAQHKLSLNELASAVKLFPQVLINVRFAGGENPLESDAVKSVAAEVEKRLEGKGRILLRKSGTEPLIRVMVECQDAELAQQCAEEIAEAVKKIN | not soluble |
| MANRMILNETAWFGRGAVDALTDEVTRRGYHKALIVTDKTLVQCGVVDKVTSRMDAAGLAWEIYAGVIPNPTISVVQEGLKVFTQSGADYLIAIGGGSPQDTCKAIGIISNNPEFADVRSLEGLSPTRKPSVPIMAIPTTAGTAAEVTINYVITDEEKRRKFVCVDPHDIPQAAFIDADMMDGMPPALKAATGVDALTHAIEGYITRAAWALTDALHIKAIEIIAGALRGAVAGEKEAGEAMALGQYVAGMGFSNVGLGLVHGMAHPLGAFYNTPHGVANAILLPHVMRFNAGSTNEKFRDIARAMGVKVEGLSLEEARNAAVEAVFTLNRDVGIPLHLRDVGVRKEDIPALAQAAFDDVCTGGNPREASLADIVELYHTAW | not soluble |
| MAPAPEVVSWAEAVEQDNAPHIQEGADGTRTETAFTEVDGVRWKVVTQFKVINKRVPKVVADRKKWVKFGSCKGEPAGPQVATTYVAEEVDMQFTRNRAGEQILDVQEDKQTAKTTSREHCRHCKGNDHWSTHCPYKVMYQLDEEADADKDTEKDRMAMGMRPDGRQIDRNRSDENTCRVTNLPQEMNEDELRDLFGKIGRVIRIFIARDKVTGLPKGFAFVTFESRDDAARAIAELNDIRMYHMVLKVEWTRPSN | not soluble |
| MAPTTVIADNNCNEESSNSFEMEIEAESAILEQIQNKMAKNLESAAYVPPTEEEQKAIDAKSVFIGNVDFNSTIEEVEEHFKGCGHIVRTTIPKDKFTKKQKNFAYIEFDDSSSIENALVMNGSLFRSRPIVVTAKRTNIPGMGHGVRGSSRGTFGRGRGAARGAPGRQQTVVVKYVYVNGPNRGGRGGRGRRFNPY | soluble |
| MAQDIKNEEVEEVQEEEVVKTAEETTPEKSELDLANERADEFENKYLRAHAEMQNIQRRANEERQNLQRYRSQDLAKAILPSLDNLERALAVEGLTDDVKKGLGMVQESLIHALKE | not soluble |
| MAQFIDRRLNGKKKSTVNRQRFIRRHKDQIKRAVSDAVNQRSVTNTESGESISIPKGDISEPVFHQGQGGIRERVLPGNDQFIKGDKIERPQGGNGGGGAGDGDASADGEGQDDFIFQISKDEYLDILFEELELPNLEKNQVQKITEWETHRAGYQTAGVPSNIDIVRSLQQSLARRTAMTAGKKRLLSELEQELETIKNSEPSQPLAVRKMQEQIEELRERIKHVPYIDSFDLRYKNYERTPIPSSQAVMFCLMDVSGSMDQATKDIAKRFYVLLYLFLTRTYENVEVVFIRHHTQAKEVNEHDFFYSQETGGTMVSSALKLMRDIVAERFPANEWNIYAAQASDGDNWADDSPKCKELLTSSILPTCQYYSYIEITKRHHQTLWTEYDKLAQGFDNFAMKNIRSVEDIYPIFRELFQKQLALEHHHHHH | not soluble |
| MAQFIDRRLNGKNKSAVNRQRFLKRHKEQIKESVADAVNRRSITNTETGEDVSIPHKDINEPIFHQGKGGVRERVHPGNDQFITGDKIERPKGGGQGSGSGEGNASPDGEGQDEFVFQISKDEYLDILFEDLELPNLEKNQIAKITEWKTHRAGFQTAGIPSNISVIRSLQQSLARRTAMTAGKKRLLKELEDELTRIKNIEPAQQLEENRLKKEIEELRKKIENVPFIDTFDLRFKNYEKRPVPSSQAVMFCLMDVSGSMDQATKDIAKRFYVLLYLFLTRTYENVDVVFIRHHTQAKEVDEHEFFYSQETGGTIVSSALKLMDEIVKERYPVGQWNIYAAQASDGDNWADDSPRCRDLLVNKLLPNCQYYSYIEITRRSHQTLWHEYEKLTDEFPNFAMKNIRSVEDIFPVFRELFQKETALEHHHHHH | soluble |
| MAQIVVIGAGLGGLPAAYELRHYLGKAHQVILISEFPQFTFVPGLVQVGLGHIPLDHMQLNVPMLAKRHGFKWVQGKVQKIDPLQKRIYTHETLNYDYLIIASGAELANDLVPGLGIYTHSICTPSHVLEARTAWETFCQQPGDLVVGAAPGTGCFGPAYEYVLLAEADLRRRGIRDQVKITYITPEPYIGHLGIANMAHSQTLTEALMNKRGIATLTNAQIVNISSDHIFLADGQSFGFAYSMILPAFRGAKFVKASGLGNERGFLPVLPTMRHRDYPEIYGVGVSVHLGQINDTQVSIGTPKSGQMTEAMAMVAAHNIAVELGSIAKPLQVPTLEALCFAEYGDTGIAYIAAPVLPDRLTGKRRYSYAIKGIWVNWAKAAFEKYFLAKMRLGVGLPWFEKLGLRLLFGLSMSRPAMAEDIVQPVNVLEHHHHHH | soluble |
| MAQPPDGRLTYMTQHQRVMEWLNSIDRPNGIHFLDMDAKSLLVLMNTLDRKTRSNLEKSCKILLSISRSDKPHLQQLCLHFTTTWNHDQFAEITAQFSPEHSFHSIFMSKKKSPNWITGGWSIDRQKNITSGIFQPEKLRLSATFVERTSRYIEYWLRNFQIDTLRIKVENLIPGKENSIQQSNYTGEIPPLKLKKLIIHGANNIRFINNWLDNLVPNAIDPLDDKKKIIDVEFLDVGKLDQIFHHSLMTTGKVNLTFNRVSTHFTRKTLNFVNSPMINIVARQVPSEAVNSFLKRWCRGEIIEDFQYLHLMETTQWPSQQMHMMDALSGLRYQIVDLKTDVKLRILEKQKEFPKPAQIFQITGPRPGFCAHFGNQFIFEIPKTEDIQHILVNPPISQNTFDEYERQKNRIYMELFRKRLIRLFN | not soluble |
| MAQPSTTYKFELNLTDLDRNVYESVKQTIARHPSETEERMAVRLLAYALWYNENLSFGRGLSDVDEPALWEKSLDDRVLHWIEVGQPDADRLTWCSRRTERTSLLAYGSLRVWEGKVVSAVKNLKNLSIAAVPQEVLETLATDMPRSIKWDVMISEGTVFVTDDRGQHEVQLQWLLGERG | not soluble |
| MAQRFTDEVAIVTGSSNGIGRATAILLASEGAKVTITGRNAERLEESRQALLKVGVPSGHINSVVADVTTGAGQDVLIDSTLKKFGKINILINNAGALIVDPEGKTNTSTGVETCLKTFQLNFQSVVEMTQKIRPHLANTHGEIVNVSSVGAGPAAENRFPYYSAAKAALDQYSRNTAIDLIPDGIRVNIVQPGFVATGFTTAASGMSPDASAKMYEGIGANTSCIPAGYCGRPEHLASVIAFLADRKASEYIVGQTIIADGGTTLVRGRNVALATRRAE | not soluble |
| MAQRRESLNMGEFAEEAIIVEEVAAPKRVNHFIEANTQEVTLQHLQQDCIIPSFASMEETISHQSFIGAVVDAAKDYFHGEQFDMPEIRISHPINGRIPSALGKKASELTDEEKTLFYQRMCFCFEIPSIVHDEYGNRLALSIGGVRAYNEINLYSKKSVERFKIFIGFRNRVCSNLMLTTDGLQDKIEVLSIQELYAAALNLFHAYNPSKDLHLLRTLGQMSISTSEFCQIIGRMRLYQALTPNQQKRLPRLLLGDSQINAACRAFVSDANFKSTGDSITGWQLLNLLNGSVKSSYIDNFLERNLNCTEFVQGIQRAKLGDSEYAWFLG | not soluble |
| MAQSEISKREKGRALITVANNVAGFNLWKRLVEEGYDVDAILPSEDKYNLLLSELVSRKNKKYDFIVNTVDRHDYAVVTNKMLKWLYPTEKIIFISSDLVYEPRPGKKKENDNAYPPTMEGKYFLEAESALDVNSDLVLRVGLVTGRCVPNILTNTINLSRANMSIDLSGAVVRNFISNADLSEYIIRLLDKNGIYNASAKSMTPRDFALELCAKINVNCKLRRTTDDKVFDYSMDTTKIELTTGYYTKDIFANISSGLYLLG | soluble |
